The target in the test is huCdc7 fused to DNA-binding domain of Gal4 (human). Put plainly: yeast two-hybrid assay, lacZ activity.

Turning to “H37 deletion derivative ΔP2 fused to Gal4 activation domain (from UniProt Q9UBU7 1-431)”, the interaction relative to the full-length clone is 10%.

Source of the values: patent US6897054.
